pKd: −log10 of the molar value. Several values for one entry are separate records, joined by “and”; a condition that tells them apart may be missing. Equal entries are not always repeated. Where two headings read alike, the source gives them in different places.
Columns and labels:
[1] = biological target: NELL2, full length (Supplementary Fig. 9c; species not stated) (not stated (human or mouse cDNA cloned)) (UniProt Q99435); assay: non-reducing SDS-PAGE; NELL2 and NELL2ΔCC on non-reducing (-DTT) and reducing (+DTT) SDS-PAGE; size from ladder standards
[2] = biological target: full-ectodomain Robo surface (SPR with full-length NELL2 as analyte); assay: SPR; mRobo3 ECD (167 RU) and mRobo1^Robo3-FN1 ECD (177 RU) biotinylated with NHS-Biotin and captured on a Biacore Series S SA chip; full-length mNELL2 as analyte; 1:1 Langmuir isotherm with a linear nonspecific-binding term; regeneration with 10 mM EDTA
[3] = biological target: mRobo1Robo3-FN1 ECD chimera (mouse) (UniProt O89026); assay: SPR; mRobo3 ECD (167 RU) or mRobo1Robo3-FN1 ECD (177 RU), NHS-biotin, on a Biacore Series S SA chip; mNELL2 full length or mNELL2 EGF1-6 as analyte; regeneration with 10 mM EDTA; equilibrium, 1:1 model with a linear non-specific binding term
[4] = biological target: mRobo3 ectodomain (mouse); assay: as above
[5] = biological target: mRobo1 ectodomain (mouse) (UniProt O89026); assay: SPR; mRobo1 ectodomain on a CM5 chip by random amine coupling (~1,200 RU); mNELL2 as analyte; 25 °C, 10 mM HEPES pH 7.2, 150 mM NaCl, 0.05% Tween-20, 0.1% BSA; KD from equilibrium responses assuming 50 to 100% active surface
[6] = biological target: mRobo1 ectodomain (mouse) (UniProt O89026); assay: as above; remark: listed apart in the source
[7] = biological target: mNELL2 (full length) (mouse); assay: SEC-MALS; Superose 6 Increase 10/300 in HBS (10 mM HEPES pH 7.2, 150 mM NaCl), Wyatt HELEOS II
mRobo3 FN1-3 (mouse) = assay: SPR; biotinylated mRobo3 FN1-3 on a Biacore SA chip; mNELL2 EGF1-6 WT and mutants as analytes over the same channel; 20 s 10 mM EDTA pH 8, 150 mM NaCl between runs; 25 °C, 10 mM HEPES pH 7.2, 150 mM NaCl, 0.05% Tween-20, 0.1% BSA; equilibrium, 1:1 Langmuir
mRobo1 FN1-3 (mouse) = mRobo1 FN1-3 (mouse) (UniProt O89026); assay: SPR; mRobo1 FN1-3 (NHS-biotin on the N-terminal amine, 315 RU) on a Biacore SA chip; mNELL2 EGF1-6 as analyte; 25 °C, 10 mM HEPES pH 7.2, 150 mM NaCl, 0.05% Tween-20, 0.1% BSA; 1:1 Langmuir
mNELL2ΔCC (mouse) [8] = assay: SPR; mNELL2 or mNELL2ΔCC (100 RU each, NHS-biotin) on a Biacore Series S SA chip; mRobo3 ECD or mRobo3 FN1 as analyte; regeneration with 10 mM EDTA; equilibrium analysis
[9] = biological target: mNELL2 (full length) (mouse); assay: SEC; mNELL2 with excess mRobo3 FN1 on Superose 6 10/300; complex fractions quantified by fluorescent anti-His western blot against 1:1 standards
[10] = biological target: mNELL2 (full length) (mouse); assay: SPR; mNELL2 or mNELL2ΔCC (100 RU each, NHS-biotin) on a Biacore Series S SA chip; mRobo3 ECD or mRobo3 FN1 as analyte; regeneration with 10 mM EDTA; equilibrium analysis
mNELL2ΔCC (mouse) [11] = assay: as above; remark: listed apart in the source
[12] = biological target: biotinylated mouse Robo3 FN1–3 (Avi-tagged) (mouse) (UniProt Q9Z2I4); assay: SPR; biotinylated mRobo3 FN1–3 captured on an SA chip (Biacore); mNELL2 EGF1–6 WT and mutants as analyte; 25 °C, 10 mM HEPES pH 7.2, 150 mM NaCl, 0.05% Tween-20, 0.1% BSA; 1:1 Langmuir isotherm
Sequence of biotinylated mouse Robo3 FN1–3 (Avi-tagged) (mouse) (Q9Z2I4 558-869): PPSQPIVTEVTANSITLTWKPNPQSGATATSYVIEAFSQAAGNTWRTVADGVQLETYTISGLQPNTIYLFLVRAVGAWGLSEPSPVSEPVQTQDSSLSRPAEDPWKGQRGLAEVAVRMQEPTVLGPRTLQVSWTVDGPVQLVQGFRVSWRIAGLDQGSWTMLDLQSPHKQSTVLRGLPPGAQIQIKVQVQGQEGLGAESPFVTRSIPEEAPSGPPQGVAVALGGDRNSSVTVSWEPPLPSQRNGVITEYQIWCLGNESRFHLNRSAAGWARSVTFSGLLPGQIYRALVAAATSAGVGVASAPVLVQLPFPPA

Sequence of mRobo1 ectodomain (mouse) (O89026 30-840): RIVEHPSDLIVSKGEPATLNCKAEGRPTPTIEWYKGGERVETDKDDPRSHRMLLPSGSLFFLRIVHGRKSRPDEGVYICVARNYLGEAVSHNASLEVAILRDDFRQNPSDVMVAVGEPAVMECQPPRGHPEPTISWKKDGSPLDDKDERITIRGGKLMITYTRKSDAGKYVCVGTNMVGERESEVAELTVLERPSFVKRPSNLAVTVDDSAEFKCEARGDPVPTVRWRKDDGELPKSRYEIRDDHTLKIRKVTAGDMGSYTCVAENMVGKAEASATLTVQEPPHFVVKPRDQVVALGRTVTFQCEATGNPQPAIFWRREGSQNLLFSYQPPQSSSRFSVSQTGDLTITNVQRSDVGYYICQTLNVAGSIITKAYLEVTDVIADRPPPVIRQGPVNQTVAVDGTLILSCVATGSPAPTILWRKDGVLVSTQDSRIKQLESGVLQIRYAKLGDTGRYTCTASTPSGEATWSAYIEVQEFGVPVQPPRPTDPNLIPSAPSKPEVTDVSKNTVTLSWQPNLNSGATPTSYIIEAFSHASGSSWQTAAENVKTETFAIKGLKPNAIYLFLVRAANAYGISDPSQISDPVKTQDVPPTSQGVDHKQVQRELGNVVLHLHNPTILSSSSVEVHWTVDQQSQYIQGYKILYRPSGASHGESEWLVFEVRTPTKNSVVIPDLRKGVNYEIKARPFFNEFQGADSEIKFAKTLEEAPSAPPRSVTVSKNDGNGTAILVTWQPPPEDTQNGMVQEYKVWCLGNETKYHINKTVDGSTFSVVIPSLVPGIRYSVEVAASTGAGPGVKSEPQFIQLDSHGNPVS
Sequence of full-length mouse NELL2 (Q61220 25-819): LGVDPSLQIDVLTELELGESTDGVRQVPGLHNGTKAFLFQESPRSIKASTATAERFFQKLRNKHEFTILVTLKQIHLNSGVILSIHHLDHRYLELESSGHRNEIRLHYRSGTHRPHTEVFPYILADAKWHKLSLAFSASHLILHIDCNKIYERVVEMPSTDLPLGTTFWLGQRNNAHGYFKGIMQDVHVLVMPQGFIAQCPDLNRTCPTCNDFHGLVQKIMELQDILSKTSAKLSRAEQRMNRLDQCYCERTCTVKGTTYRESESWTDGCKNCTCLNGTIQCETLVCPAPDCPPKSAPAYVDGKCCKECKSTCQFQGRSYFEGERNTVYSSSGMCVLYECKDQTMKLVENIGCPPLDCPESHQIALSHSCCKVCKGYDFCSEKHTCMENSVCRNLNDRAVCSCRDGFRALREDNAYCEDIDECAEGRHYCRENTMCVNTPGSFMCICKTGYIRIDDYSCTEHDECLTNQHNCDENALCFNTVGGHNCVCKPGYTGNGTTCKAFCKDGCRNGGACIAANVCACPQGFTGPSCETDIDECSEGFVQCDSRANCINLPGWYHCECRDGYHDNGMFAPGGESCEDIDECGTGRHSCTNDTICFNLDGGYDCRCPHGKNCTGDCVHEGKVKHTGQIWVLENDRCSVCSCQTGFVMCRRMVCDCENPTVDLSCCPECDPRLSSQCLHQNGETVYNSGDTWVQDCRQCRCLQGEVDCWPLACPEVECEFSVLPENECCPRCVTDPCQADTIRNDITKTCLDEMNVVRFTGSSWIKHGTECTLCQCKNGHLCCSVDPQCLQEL
Sequence of mRobo1 FN1-3 (mouse) (O89026 519-840): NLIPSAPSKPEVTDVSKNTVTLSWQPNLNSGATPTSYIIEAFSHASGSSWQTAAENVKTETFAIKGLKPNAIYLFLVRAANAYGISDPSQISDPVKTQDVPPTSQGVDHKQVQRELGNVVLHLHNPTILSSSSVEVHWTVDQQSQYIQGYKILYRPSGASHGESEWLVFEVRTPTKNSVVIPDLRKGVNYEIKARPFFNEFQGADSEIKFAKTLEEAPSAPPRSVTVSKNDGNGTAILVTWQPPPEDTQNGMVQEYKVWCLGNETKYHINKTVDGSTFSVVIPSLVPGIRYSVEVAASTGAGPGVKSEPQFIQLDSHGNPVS

Substance “NELL2, full length (Supplementary Fig. 9c; species not stated) (from UniProt Q99435 22-816) (ligand)” has a stoichiometry N [1] of 3.

Work on “full-length mouse NELL2 (from UniProt Q61220 25-819) (ligand)” yielded a pKd [2] of 6.00 to 6.30.

In the case of mNELL2 (full length) (ligand), the pKd [3] was 6.33, the pKd [4] was 6.03 and the pKd [5] was 3.46. The pKd [6] was < 4.00 and the stoichiometry N [7] was 3.

For “mNELL2 EGF1-6 R448A/Y450A (domain or fragment)”, the pKd (mRobo3 FN1-3 (mouse)) was 4.06.

“mNELL2 EGF1-6 R452A (domain or fragment)” showed a pKd (mRobo3 FN1-3 (mouse)) of 5.77.

“mNELL2 EGF1-6 V509A (domain or fragment)” showed a pKd (mRobo3 FN1-3 (mouse)) of 5.77.

Substance mNELL2 EGF1-6 WT (domain or fragment) has a pKd (mRobo1 FN1-3 (mouse)) of 4.86, a pKd [3] of 5.77 and a pKd [4] of 5.77. It also gave a pKd (mRobo3 FN1-3 (mouse)) of 6.15.

mRobo3 FN1 (domain or fragment) was tested, and the pKd (mNELL2ΔCC (mouse) [8]) was 6.15 and 6.05, the stoichiometry N (mNELL2:mRobo3 FN1 (molar ratio)) [9] was 1.16 and the pKd [10] was 6.29. It also gave a pKd (mNELL2ΔCC (mouse) [11]) of 6.14.

For mRobo3 ectodomain (domain or fragment), the pKd [10] was 6.05 and the pKd (mNELL2ΔCC (mouse) [11]) was 5.74.

For “mouse NELL2 EGF1–6 L498A/F500A (domain or fragment)”, the pKd [12] was < 4.00 and the fold reduction of affinity against wild-type mNELL2 [12] was 500 fold.

With “mouse NELL2 EGF1–6 R448A/Y450A (domain or fragment)” the fold reduction of affinity against wild-type mNELL2 [12] was 120 fold.

Substance “mouse NELL2 EGF1–6 R452A (domain or fragment)” has a pKd [12] of 5.77 and a fold reduction of affinity against wild-type mNELL2 [12] of 2.4 fold.

“mouse NELL2 EGF1–6 V509A (domain or fragment)” gave a pKd [12] of 5.77 and a fold reduction of affinity against wild-type mNELL2 [12] of 2.4 fold.

Reference: publication PMC7083938
